Experimental data taken from patent US20080044360A1 (COLLAGEN MEDICAL, published 2008).
Bridge positions count the residues as written; N and C are the ends. Square brackets hold non-standard residues; d marks the D form. Ends that are not written are not given here.

B1: SEQ ID NO 26 (peptide)
peptide: WRCDGDAHDWHCDWF
modifications: disulfide 3-12 (inferred)
notes: cyclic, disulfide
B2: SEQ ID NO 29 (peptide)
peptide: DWICHGDFDTWKCDLQ
modifications: disulfide 4-13 (inferred)
notes: cyclic, disulfide
B3: SEQ ID NO 44 (peptide)
peptide: GWNCYEYDSQWICDHL
modifications: disulfide 4-13 (inferred)
notes: cyclic, disulfide
B4: SEQ ID NO 41 (peptide)
peptide: VWACRGGTTNWHCDL
modifications: disulfide 4-13 (inferred)
notes: cyclic, disulfide
B5: SEQ ID NO 33 (peptide)
peptide: AWTCVGGEKTWGCVWN
modifications: disulfide 4-13 (inferred)
notes: cyclic, disulfide
B6: SEQ ID NO 6 (peptide)
peptide: TWQCSGNQKWSCEWF
modifications: disulfide 4-12 (inferred)
notes: cyclic, disulfide
B7: SEQ ID NO 42 (peptide)
peptide: TWRCDQFKGKWVCRGG
modifications: disulfide 4-13 (inferred)
notes: cyclic, disulfide
B8: SEQ ID NO 107 (peptide)
peptide: YHACYQAGCYIW
modifications: disulfide 4-9 (inferred)
notes: cyclic, disulfide
B9: SEQ ID NO 10 (peptide)
peptide: LTVCHPPYYGRCNFV
modifications: disulfide 4-12 (inferred)
notes: cyclic, disulfide
B10: SEQ ID NO 30 (peptide)
peptide: GWDCQGTDNIWECVRK
modifications: disulfide 4-13 (inferred)
notes: cyclic, disulfide
B11: SEQ ID NO 32 (peptide)
peptide: NWVCSGDHADWSCALI
modifications: disulfide 4-13 (inferred)
notes: cyclic, disulfide
B12: SEQ ID NO 9 (peptide)
peptide: TWNCYGVTEWHCYMI
modifications: disulfide 4-12 (inferred)
notes: cyclic, disulfide
B13: SEQ ID NO 8 (peptide)
peptide: GWQCFGASDWHCTWV
modifications: disulfide 4-12 (inferred)
notes: cyclic, disulfide
B14: SEQ ID NO 35 (peptide)
peptide: YWVCGGDHQSWHCSHP
modifications: disulfide 4-13 (inferred)
notes: cyclic, disulfide
B15: SEQ ID NO 31 (peptide)
peptide: GWVCGGDHTTWECHLQ
modifications: disulfide 4-13 (inferred)
notes: cyclic, disulfide
B16: SEQ ID NO 25 (peptide)
peptide: IWLCTGGAATWNCKFD
modifications: disulfide 4-13 (inferred)
notes: cyclic, disulfide
B17: SEQ ID NO 11 (peptide)
peptide: PLVCHPPYSGSCSLH
modifications: disulfide 4-12 (inferred)
notes: cyclic, disulfide
B18: SEQ ID NO 43 (peptide)
peptide: PWQCYSDKTSWVCNLY
modifications: disulfide 4-13 (inferred)
notes: cyclic, disulfide
B19: SEQ ID NO 45 (peptide)
peptide: EWQCTQYANQWNCKYN
modifications: disulfide 4-13 (inferred)
notes: cyclic, disulfide
B20: SEQ ID NO 27 (peptide)
peptide: SWHCFGDNENWMCNLR
modifications: disulfide 4-13 (inferred)
notes: cyclic, disulfide
B21: SEQ ID NO 28 (peptide)
peptide: SWICTGDNIDWNCRFA
modifications: disulfide 4-13 (inferred)
notes: cyclic, disulfide
B22: SEQ ID NO 23 (peptide)
peptide: AWDCSGNIPTWYCRRL
modifications: disulfide 4-13 (inferred)
notes: cyclic, disulfide
B23: SEQ ID NO 24 (peptide)
peptide: EWLCVGDSLKWYCKHS
modifications: disulfide 4-13 (inferred)
notes: cyclic, disulfide
B24: SEQ ID NO 22 (peptide)
peptide: DWECHGNEFEWNCLMR
modifications: disulfide 4-13 (inferred)
notes: cyclic, disulfide
B25: SEQ ID NO 40 (peptide)
peptide: EWRCRGDSSSWLCDYT
modifications: disulfide 4-13 (inferred)
notes: cyclic, disulfide
B26: SEQ ID NO 34 (peptide)
peptide: MWDCTGNSAEWRCEMQ
modifications: disulfide 4-13 (inferred)
notes: cyclic, disulfide
B27: SEQ ID NO 17 (peptide)
peptide: DWTCSGDEYTWHCNYE
modifications: disulfide 4-13 (inferred)
notes: cyclic, disulfide
B28: SEQ ID NO 19 (peptide)
peptide: DWTCSGDEYRWHCNYE
modifications: disulfide 4-13 (inferred)
notes: cyclic, disulfide
B29: SEQ ID NO 15 (peptide)
peptide: DWTCYGDEYTWHCNYE
modifications: disulfide 4-13 (inferred); not fully specified (C-terminus)
notes: cyclic, disulfide
B30: SEQ ID NO 16 (peptide)
peptide: DWTCSGDEYYWHCNYE
modifications: disulfide 4-13 (inferred); not fully specified (C-terminus)
notes: cyclic, disulfide
B31: SEQ ID NO 18 (peptide)
peptide: DWTCSGDEYTWYCNYE
modifications: disulfide 4-13 (inferred)
notes: cyclic, disulfide
B32: SEQ ID NO 142 (peptide)
peptide: GQWTCSADEYTWHCNYE
modifications: disulfide 5-14 (inferred)
notes: cyclic, disulfide
B33: SEQ ID NO 169 (peptide)
peptide: QWTCSG[dD]EYTWHCNYE
modifications: disulfide 4-13 (inferred); not fully specified (N-terminus); printed as QWTCSGdEYTWHCNYE
notes: cyclic, disulfide
B34: SEQ ID NO 14 (peptide)
peptide: DWTCRGDEYTWHCNYE
modifications: disulfide 4-13 (inferred)
notes: cyclic, disulfide
B35: SEQ ID NO 171 (peptide)
peptide: QWTCSGDE[dY]TWHCNYE
modifications: disulfide 4-13 (inferred); not fully specified (N-terminus); printed as QWTCSGDEyTWHCNYE
notes: cyclic, disulfide
B36: SEQ ID NO 7 (peptide)
peptide: NWYCTGTKSWECFWK
modifications: disulfide 4-12 (inferred)
notes: cyclic, disulfide
B37: SEQ ID NO 103 (peptide)
peptide: YPACDDQTHLWNLACWPA
modifications: disulfide 4-15 (inferred)
notes: cyclic, disulfide
B38: SEQ ID NO 12 (peptide)
peptide: PMICHAPYVGKCNFL
modifications: disulfide 4-12 (inferred)
notes: cyclic, disulfide
B39: SEQ ID NO 20 (peptide)
peptide: PWYCSGDHLDWKCIYQ
modifications: disulfide 4-13 (inferred)
notes: cyclic, disulfide
B40: SEQ ID NO 21 (peptide)
peptide: DWTCVGDHKTWKCNFH
modifications: disulfide 4-13 (inferred)
notes: cyclic, disulfide

molecular target: T1, human collagen type I, acid soluble, extracted from placenta (Sigma C7774) (human, UniProt P02452 162-1218; P08123 80-1119); assay: dried collagen assay
T1 construct: tissue extract, gelled and dried in wells; also called dried human collagen; h-Collagen
T1 sequence (P02452 162-1218 limits assumed, chain 1 of 2): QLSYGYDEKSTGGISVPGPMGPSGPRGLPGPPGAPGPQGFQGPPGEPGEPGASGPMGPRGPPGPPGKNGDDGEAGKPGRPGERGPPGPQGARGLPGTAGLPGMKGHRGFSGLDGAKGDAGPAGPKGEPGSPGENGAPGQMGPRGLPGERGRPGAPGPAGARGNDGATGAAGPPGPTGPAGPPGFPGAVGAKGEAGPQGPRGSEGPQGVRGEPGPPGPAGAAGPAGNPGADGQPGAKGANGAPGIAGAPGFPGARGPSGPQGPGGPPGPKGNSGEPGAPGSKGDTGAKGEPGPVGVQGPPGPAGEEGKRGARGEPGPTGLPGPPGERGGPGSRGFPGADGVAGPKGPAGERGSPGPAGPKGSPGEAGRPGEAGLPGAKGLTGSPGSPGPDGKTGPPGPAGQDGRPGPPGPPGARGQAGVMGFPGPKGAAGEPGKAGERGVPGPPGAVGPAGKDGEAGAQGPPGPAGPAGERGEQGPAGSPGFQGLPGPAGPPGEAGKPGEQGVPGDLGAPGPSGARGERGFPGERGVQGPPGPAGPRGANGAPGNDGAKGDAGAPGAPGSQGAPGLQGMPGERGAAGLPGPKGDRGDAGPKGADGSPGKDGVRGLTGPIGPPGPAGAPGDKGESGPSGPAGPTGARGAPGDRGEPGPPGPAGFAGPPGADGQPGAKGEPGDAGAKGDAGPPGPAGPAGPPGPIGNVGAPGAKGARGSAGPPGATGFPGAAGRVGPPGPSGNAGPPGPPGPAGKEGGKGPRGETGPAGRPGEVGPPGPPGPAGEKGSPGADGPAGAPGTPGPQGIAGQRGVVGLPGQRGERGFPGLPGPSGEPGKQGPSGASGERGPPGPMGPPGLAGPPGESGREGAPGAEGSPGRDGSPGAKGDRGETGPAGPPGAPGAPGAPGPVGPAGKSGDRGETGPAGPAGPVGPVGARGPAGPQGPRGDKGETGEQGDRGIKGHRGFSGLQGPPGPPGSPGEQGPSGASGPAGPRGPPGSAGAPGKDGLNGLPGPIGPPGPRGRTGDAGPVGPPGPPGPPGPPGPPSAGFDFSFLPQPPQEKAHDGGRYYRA
T1 sequence (P08123 80-1119 limits assumed, chain 2 of 2): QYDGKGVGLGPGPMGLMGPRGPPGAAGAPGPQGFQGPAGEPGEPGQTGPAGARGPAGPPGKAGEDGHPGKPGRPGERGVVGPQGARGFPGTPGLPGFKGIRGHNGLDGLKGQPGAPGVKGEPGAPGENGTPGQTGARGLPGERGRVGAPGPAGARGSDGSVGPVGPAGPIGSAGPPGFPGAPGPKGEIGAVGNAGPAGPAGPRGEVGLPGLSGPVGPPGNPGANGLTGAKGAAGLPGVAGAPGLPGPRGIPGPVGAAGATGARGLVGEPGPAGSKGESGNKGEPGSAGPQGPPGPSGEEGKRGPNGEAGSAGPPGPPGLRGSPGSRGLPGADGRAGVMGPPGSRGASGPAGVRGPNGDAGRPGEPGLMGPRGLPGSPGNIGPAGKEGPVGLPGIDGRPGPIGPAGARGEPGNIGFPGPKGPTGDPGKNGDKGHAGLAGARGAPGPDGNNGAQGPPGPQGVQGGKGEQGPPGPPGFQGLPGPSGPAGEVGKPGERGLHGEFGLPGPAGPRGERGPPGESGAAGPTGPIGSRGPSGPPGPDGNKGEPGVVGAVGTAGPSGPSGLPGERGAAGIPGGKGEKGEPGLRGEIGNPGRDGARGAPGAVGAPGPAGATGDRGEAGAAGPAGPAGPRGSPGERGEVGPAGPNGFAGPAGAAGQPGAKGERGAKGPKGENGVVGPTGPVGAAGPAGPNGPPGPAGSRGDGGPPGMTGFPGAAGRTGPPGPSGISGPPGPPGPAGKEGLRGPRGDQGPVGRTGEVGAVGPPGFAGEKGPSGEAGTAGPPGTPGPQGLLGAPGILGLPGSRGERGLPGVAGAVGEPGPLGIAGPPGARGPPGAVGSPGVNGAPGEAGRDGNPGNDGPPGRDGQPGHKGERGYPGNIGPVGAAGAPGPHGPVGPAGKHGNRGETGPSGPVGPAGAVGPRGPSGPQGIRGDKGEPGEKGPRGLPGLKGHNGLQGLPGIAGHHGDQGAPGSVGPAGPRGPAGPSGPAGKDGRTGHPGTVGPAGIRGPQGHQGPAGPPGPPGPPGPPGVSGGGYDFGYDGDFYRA
Protocol: An additional 90 μL is reserved in a HPLC glass vial as a measure of the total concentration.

Row | Binder | % bound [%]
1 | B1 | 25
2 | B2 | 16
3 | B3 | 28
4 | B4 | 1
5 | B5 | 12
6 | B6 | 20
7 | B7 | 40
8 | B8 | 9
9 | B9 | 9
10 | B10 | 16
11 | B11 | 12
12 | B12 | 7
13 | B13 | 9
14 | B14 | 8
15 | B15 | 15
16 | B16 | 39
17 | B17 | 9
18 | B18 | 30
19 | B19 | 25
20 | B20 | 24

Row | Binder | % bound [%]
21 | B21 | 20
22 | B22 | 44
23 | B23 | 43
24 | B24 | 55
25 | B25 | 3
26 | B26 | 11
27 | B27 | 78
28 | B28 | 70
29 | B29 | 83
30 | B30 | 83
31 | B31 | 78
32 | B32 | 9
33 | B33 | 11
34 | B34 | 83
35 | B35 | 13
36 | B36 | 11
37 | B37 | 2
38 | B38 | 7
39 | B39 | 64
40 | B40 | 57
